Test results as given in article doi:10.1101/2024.05.13.593894 (bioRxiv, 2024).
Where two headings read alike, the source gives them in different places.

B1: SRC1_(630-987) (domain or fragment, human, UniProt Q15788 630-987, looked up)
chain: SHKLVQLLTTTAEQQLRHADIDTSCKDVLSCTGTSNSASANSSGGSCPSSHSSLTERHKILHRLLQEGSPSDITTLSVEPDKKDSASTSVSVTGQVQGNSSIKLELDASKKKESKDHQLLRYLLDKDEKDLRSTPNLSLDDVKVKVEKKEQMDPCNTNPTPMTKPTPEEIKLEAQSQFTADLDQFDQLLPTLEKAAQLPGLCETDRMDGAVTSVTIKSEILPASLQSATARPTSRLNRLPELELEAIDNQFGQPGTGDQIPWTNNTVTAINQSKSEDQCISSQLDELLCPPTTVEGRNDEKALLEQLVSFLSGKDETELAELDRALGIDKLVQGGGLDVLSERFPPQQATPPLIMEER
modifications: biotin (biotin-labelled in the BLI assays; site not stated)
B2: FXR120-RXRα98 heterodimer (FXR_(120-486) with RXRα_(98-462)) (complex, human)
chain 1: KKPRMGASAGRIKGDELCVVCGDRASGYHYNALTCEGCKGFFRRSITKNAVYKCKNGGNCVMDMYMRRKCQECRLRKCKEMGMLAECMYTGLLTEIQCKSKRLRKNVKQHADQTVNEDSEGRDLRQVTSTTKSCREKTELTPDQQTLLHFIMDSYNKQRMPQEITNKILKEEFSAEENFLILTEMATNHVQVLVEFTKKLPGFQTLDHEDQIALLKGSAVEAMFLRSAEIFNKKLPSGHSDLLEERIRNSGISDEYITPMFSFYKSIGELKMTQEEYALLTAIVILSPDRQYIKDREAVEKLQEPLLDVLQKLCKIHQPENPQHFACLLGRLTELRTFNHHHAEMLMSWRVNDHKFTPLLCEIWDVQ
chain 2: MNPVSSSEDIKPPLGLNGVLKVPAHPSGNMASFTKHICAICGDRSSGKHYGVYSCEGCKGFFKRTVRKDLTYTCRDNKDCLIDKRQRNRCQYCRYQKCLAMGMKREAVQEERQRGKDRNENEVESTSSANEDMPVERILEAELAVEPKTETYVEANMGLNPSSPNDPVTNICQAADKQLFTLVEWAKRIPHFSELPLDDQVILLRAGWNELLIASFSHRSIAVKDGILLATGLHVHRNSAHSAGVGAIFDRVLTELVSKMRDMQMDKTELGCLRAIVLFNPDSKGLSNPAEVEALREKVYASLEAYCKHKYPEQPGRFAKLLLRLPALRSIGLKCLEHLFFFKLIGDTPIDTFLMEMLEAPHQMT

Columns and labels:
[1] = biological target: B2; assay: BLI
[2] = biological target: B2; assay: BLI; remark: listed apart in the source
[3] = biological target: B2; assay: BLI; remark: listed apart in the source
[4] = biological target: B1; assay: SEC-MALS
[5] = biological target: SRC1_(630-987) M3 mutant (NR-box3 mutated) (human) (UniProt Q15788); assay: BLI

Row | Kd [1] | Kd [2] | Kd [3] | stoichiometry N [4] | fold reduction in affinity against wild type SRC1 (630-987) [5] | Binder
1 | 23.7 nM | 49 nM | 43.1 nM |  |  | B1
2 |  |  |  | 1 | 2 fold | B2
